Data: patent US6927286B1, “Bleomycin gene cluster components and their uses” (The Regents of the University of California, priority 1999, dated 2005)

Assays:
[1] = tested on: T1, apo-BlmI (type II peptidyl carrier protein BlmI, apo-form, produced from pBS2)
T1 sequence: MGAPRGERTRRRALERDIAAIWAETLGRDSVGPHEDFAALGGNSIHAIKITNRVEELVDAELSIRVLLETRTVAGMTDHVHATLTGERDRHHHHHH

[2] = tested on: T2, holo-BlmI (4'-phosphopantetheinylated BlmI, produced from pBS2)
T2 sequence: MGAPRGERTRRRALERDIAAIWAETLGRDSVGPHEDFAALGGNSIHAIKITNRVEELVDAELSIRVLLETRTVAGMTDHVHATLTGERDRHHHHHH

[3] = target: apo-BlmI (type II peptidyl carrier protein BlmI, apo-form, produced from pBS2) (Streptomyces verticillus ATCC15003); assay: cell-based or functional assay
Gsp PPTase = target: T3, Gsp PPTase (Aneurinibacillus migulanus, UniProt P40683); assay: In vivo 4′-phosphopantetheinylation of BlmI co-expressed with gsp in E. coli OG7001; assay type: cell-based; conditions: E. coli OG7001(pBS2/pDPT-Gsp), HPLC analysis
T3 construct: expressed in transfected cells; host or cells: E. coli OG7001 (pBS2/pDPT-Gsp)
T3 sequence (P40683 whole entry, looked up): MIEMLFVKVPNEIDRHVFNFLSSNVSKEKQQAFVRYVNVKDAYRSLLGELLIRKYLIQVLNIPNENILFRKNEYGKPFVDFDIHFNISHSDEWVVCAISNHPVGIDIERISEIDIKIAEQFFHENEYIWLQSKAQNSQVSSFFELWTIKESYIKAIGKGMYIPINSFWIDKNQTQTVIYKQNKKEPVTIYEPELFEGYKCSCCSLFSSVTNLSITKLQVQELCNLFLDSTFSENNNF
Text: (§1) To examine 4′-phosphopantetheinylation of BlmI in vivo, we chose E. coli OG7001 as the expression host, which is a β-alanine auxotroph derived from E. coli BL21(DE3) by P1 co-transduction of the panD mutation from E. coli SJ16 (Epple et al. (1998) J. Bacteriol. 180: 4950-4954). Upon introduction of pBS2 into E. coli OG7001, blmI was exceptionally well expressed and the overproduced BlmI protein was readily purified. […] To circumvent the poor endogenous PPTase activity, we next co-expressed blmI with the gsp gene, which was isolated from the gramicidin S producer Bacillus brevis, and encoded a PPTase that was known to 4′-phosphopantetheinylate heterologously produced PCPs in E. coli (Lambalot et al. (1996) Chem. Biol. 3: 923-936; Ku et al. (1997) Chem. Biol. 4: 203-207). We co-transformed pDPT-Gsp, in which the expression of the gsp gene was under the control of the T5/Lac promoter (Ku et al. (1997) Chem. Biol. 4: 203-207), and pBS2 into E. coli OG7001. BlmI was again very well expressed and the resulting BlmI protein was similarly purified. […]
(§2) Samples of BlmI (30-70 μg) purified from E. coli OG7001(pBS2) or E. coli OG7001(pBS2/pDPT-Gsp) were analyzed on a Nova-Pak C18 column (5 mm×10, Waters, Milford, Mass.) using a Rainin DMAX HPLC unit. […]

[4] = tested on: E. coli endogenous PPTases; assay: In vivo 4′-phosphopantetheinylation of BlmI in E. coli OG7001 without Gsp; assay type: cell-based; conditions: E. coli OG7001(pBS2), HPLC analysis
Text: as §1, §2

[5] = target: T4, apo-BlmI (type II peptidyl carrier protein BlmI, apo-form, produced from pBS2)
T4 chain: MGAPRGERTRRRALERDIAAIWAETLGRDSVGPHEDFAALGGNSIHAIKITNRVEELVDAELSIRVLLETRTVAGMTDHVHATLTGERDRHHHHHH

apo-BlmI = assay: In vitro 4′-phosphopantetheinylation of BlmI by Sfp with [3H-pantetheine]-CoA; assay type: biochemical, Streptomyces verticillus; conditions: autoradiographic analysis
Description: To investigate 4′-phosphopantetheinylation of BlmI in vitro, we chose the Sfp protein as the preferred PPTase, which had been isolated before from the surfactin producer Bacillus subtilis (Nakano et al. (1992) Mol. Gen. Genet. 232: 313-321).
Expression of sfp in E. coli MV1190(pUC8-Sfp), purification of the Sfp PPTase to homogeneity, and 4′-phosphopantetheinylation of apo-BlmI by Sfp in vitro were carried out essentially according to literature procedures (Quadri et al. (1998) Biochemistry 37: 1585-1595; Nakano et al. (1992) Mol. Gen. Genet. 232: 313-321). A typical 100 μl assay solution contained 26 μM apo-BlmI, 2.9 μM Sfp, 25 μM [^3H-pantetheine]-CoA (0.9 μCi, 40 Ci/mM), 10 mM MgCl2, and 5 mM DTT, in 75 mM MES/NaOAc buffer, pH 6.0. After 30 min incubation at 37° C., the assays were stopped by addition of 5 μl of bovine serum albumin (0.2 mg/ml) and 0.9 ml of cold 10% (v/v) trichloroacetic acid (TCA). The precipitated proteins were collected by centrifugation at 14,000 rpm, 20 min, 4° C. (Eppendorf 5415C centrifuge), washed with 10% TCA three times, and resolved by SDS-PAGE on 15% gel. The ^3H-activity incorporated into holo-BlmI was similarly determined by autoradiography as described for in vivo labeling of holo-Blm with [3-^3H]-β-alanine.

BlmVIII = assay: In vitro phosphopantetheinylation assay of PptA; assay type: biochemical, S. verticillus; conditions: (3H)-(pantetheinyl)-CoASH, autoradiography
BlmVIII, sequence (as listed by the source, one chain of several): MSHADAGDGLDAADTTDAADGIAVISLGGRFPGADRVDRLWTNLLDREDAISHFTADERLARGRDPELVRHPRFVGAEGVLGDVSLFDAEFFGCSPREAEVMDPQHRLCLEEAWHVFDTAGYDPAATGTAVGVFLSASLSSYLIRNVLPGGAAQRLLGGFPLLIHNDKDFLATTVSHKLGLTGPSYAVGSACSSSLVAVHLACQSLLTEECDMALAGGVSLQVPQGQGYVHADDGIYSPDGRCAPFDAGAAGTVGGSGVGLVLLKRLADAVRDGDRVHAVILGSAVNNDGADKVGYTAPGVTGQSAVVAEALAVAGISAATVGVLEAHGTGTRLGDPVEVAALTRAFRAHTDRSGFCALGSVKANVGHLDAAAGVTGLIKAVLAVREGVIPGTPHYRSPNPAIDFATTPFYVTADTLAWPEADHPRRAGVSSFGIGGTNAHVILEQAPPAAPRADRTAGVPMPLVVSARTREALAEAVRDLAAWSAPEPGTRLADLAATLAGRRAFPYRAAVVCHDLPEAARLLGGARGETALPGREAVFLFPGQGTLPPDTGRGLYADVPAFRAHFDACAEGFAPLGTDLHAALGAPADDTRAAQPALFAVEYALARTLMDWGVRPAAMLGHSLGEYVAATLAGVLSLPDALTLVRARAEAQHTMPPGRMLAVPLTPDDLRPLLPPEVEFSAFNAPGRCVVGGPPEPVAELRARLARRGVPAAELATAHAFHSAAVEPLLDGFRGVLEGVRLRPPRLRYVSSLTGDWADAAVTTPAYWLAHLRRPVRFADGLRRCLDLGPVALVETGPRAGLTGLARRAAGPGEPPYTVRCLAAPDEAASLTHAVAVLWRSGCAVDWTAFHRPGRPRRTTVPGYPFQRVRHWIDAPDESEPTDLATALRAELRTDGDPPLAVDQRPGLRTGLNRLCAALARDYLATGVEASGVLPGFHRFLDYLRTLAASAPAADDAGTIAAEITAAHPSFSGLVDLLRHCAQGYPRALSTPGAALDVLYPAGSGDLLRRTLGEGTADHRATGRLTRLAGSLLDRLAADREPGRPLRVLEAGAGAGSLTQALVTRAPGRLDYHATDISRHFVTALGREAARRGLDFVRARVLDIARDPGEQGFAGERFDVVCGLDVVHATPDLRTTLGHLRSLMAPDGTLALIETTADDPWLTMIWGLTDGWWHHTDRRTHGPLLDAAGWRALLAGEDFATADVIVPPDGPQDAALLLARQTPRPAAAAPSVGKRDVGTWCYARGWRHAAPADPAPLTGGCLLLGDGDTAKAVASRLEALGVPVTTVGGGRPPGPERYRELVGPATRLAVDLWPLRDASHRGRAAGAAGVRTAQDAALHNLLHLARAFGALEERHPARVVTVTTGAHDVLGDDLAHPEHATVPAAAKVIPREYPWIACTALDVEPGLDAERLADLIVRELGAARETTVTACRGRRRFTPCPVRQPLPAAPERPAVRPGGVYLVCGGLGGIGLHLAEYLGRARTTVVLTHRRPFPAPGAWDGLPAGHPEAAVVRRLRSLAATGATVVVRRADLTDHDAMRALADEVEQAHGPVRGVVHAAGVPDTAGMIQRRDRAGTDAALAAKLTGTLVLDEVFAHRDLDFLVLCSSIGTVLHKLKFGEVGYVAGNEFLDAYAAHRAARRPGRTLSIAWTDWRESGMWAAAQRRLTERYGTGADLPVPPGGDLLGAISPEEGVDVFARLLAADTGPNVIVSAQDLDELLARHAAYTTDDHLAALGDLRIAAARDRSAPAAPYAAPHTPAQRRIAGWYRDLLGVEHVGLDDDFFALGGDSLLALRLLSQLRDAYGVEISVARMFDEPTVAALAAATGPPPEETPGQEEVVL

TcmM = target: T5, TcmM (Streptomyces glaucescens, UniProt P12884); assay: In vitro phosphopantetheinylation assay of PptA; assay type: biochemical, S. glaucescens; conditions: (3H)-(pantetheinyl)-CoASH, autoradiography
T5 construct: His6 (N); His6 (C); made in house; host or cells: E. coli BL21(DE3) (pET28a-TcmM)
T5 sequence (P12884 1-83): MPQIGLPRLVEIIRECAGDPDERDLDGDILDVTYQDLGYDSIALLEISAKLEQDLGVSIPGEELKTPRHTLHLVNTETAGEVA
T5 sequence (Q9F0Q6 1-246 partner): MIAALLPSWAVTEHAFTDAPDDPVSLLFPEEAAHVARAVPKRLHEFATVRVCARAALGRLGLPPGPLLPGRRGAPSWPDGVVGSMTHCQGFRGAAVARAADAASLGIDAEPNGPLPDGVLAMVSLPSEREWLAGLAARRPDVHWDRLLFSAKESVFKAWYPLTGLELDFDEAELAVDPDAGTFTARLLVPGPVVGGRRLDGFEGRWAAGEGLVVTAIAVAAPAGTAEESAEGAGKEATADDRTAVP

BlmI = assay: In vitro phosphopantetheinylation assay of PptA; conditions: (3H)-(pantetheinyl)-CoASH, autoradiography
MBlmX-2 = assay: In vitro phosphopantetheinylation assay of PptA; conditions: (3H)-(pantetheinyl)-CoASH, autoradiography
MBlmX-2, sequence (as listed by the source, one chain of several): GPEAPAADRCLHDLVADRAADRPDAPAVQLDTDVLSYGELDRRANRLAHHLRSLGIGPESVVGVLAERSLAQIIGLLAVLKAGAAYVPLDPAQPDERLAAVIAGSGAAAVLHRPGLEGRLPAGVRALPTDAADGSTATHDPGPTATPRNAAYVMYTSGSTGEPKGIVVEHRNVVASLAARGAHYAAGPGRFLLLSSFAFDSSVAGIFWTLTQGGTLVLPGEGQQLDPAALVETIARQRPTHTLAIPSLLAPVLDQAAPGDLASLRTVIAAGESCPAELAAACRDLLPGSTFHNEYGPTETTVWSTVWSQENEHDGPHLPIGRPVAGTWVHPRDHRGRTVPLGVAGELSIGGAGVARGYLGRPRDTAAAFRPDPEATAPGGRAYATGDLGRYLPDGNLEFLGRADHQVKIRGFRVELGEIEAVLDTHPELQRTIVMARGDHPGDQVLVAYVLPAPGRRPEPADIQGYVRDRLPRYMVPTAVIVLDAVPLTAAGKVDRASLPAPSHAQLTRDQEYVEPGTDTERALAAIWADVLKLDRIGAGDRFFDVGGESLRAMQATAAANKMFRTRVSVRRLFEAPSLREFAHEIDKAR

Molecule: Val-A (adenylation domain of a type I NRPS from a gene cluster of Sv ATCC15003 unrelated to BLM biosynthesis)
- in vitro aminoacylation in trans with L-[^14C(U)]valine and ATP, SDS-PAGE and autoradiography [1]: nor incubation of L-[^14C(U)]valine with the Val-A and apo-BlmI proteins, resulted in the detection of ^14C-labeled BlmI protein
- in vitro aminoacylation in trans with L-[^14C(U)]valine and ATP, SDS-PAGE and autoradiography [2]: the holo-BlmI was specifically labeled by L-[^14C(U)]valine in the presence of Val-A

Molecule: Gsp PPTase from the gramicidin S producer Bacillus brevis (from UniProt P40683 1-237) (enzyme)
- in vivo 4′-phosphopantetheinylation on co-expression with gsp, HPLC analysis [3]: > 60%

B1: BlmI: type II peptidyl carrier protein of 90 amino acids encoded by blmI (protein)
chain: MGAPRGERTRRRALERDIAAIWAETLGRDSVGPHEDFAALGGNSIHAIKITNRVEELVDAELSIRVLLETRTVAGMTDHVHATLTGERDRHHHHHH
modifications: left off: small tags and cut ends
notes: type II peptidyl carrier protein of 90 amino acids encoded by blmI
- overproduced BlmI modified into the holo-BlmI protein (Gsp PPTase): at least 60%
- form of purified BlmI [4]: essentially in the apo-form

B2: Sfp PPTase from the surfactin producer Bacillus subtilis (protein)
chain: MKIYGIYMDRPLSQEENERFMSFISPEKREKCRRFYHKEDAHRTLLGDVLVRSVISRQYQLDKSDIRFSTQEYGKPCIPDLPDAHFNISHSGRWVICAFDSQPIGIDIEKTKPISLEIAKRFFSKTEYSDLLAKDKDEQTDYFYHLWSMKESFIKQEGKGLSLPLDSFSVRLHQDGQVSIELPDSHSPCYIKTYEVDPGYKMAVCAAHPDFPEDITMVSYEELL
- in vitro 4′-phosphopantetheinylation with [^3H-pantetheine]-CoA, autoradiography [5]: the apo-BlmI was quantitatively labeled by [^3H-pantetheine]-CoA, and no labeling was observed in the absence of either the apo-BlmI or the Sfp PPTase protein
- transfer of 4′-phosphopantetheine group from CoA to apo-BlmI (apo-BlmI): can recognize apo-BlmI as a substrate

B3: PptA: phosphopantetheinyl transferase of 246 amino acids encoded by pptA from S. verticillus ATCC15003 (protein)
chain: MIAALLPSWAVTEHAFTDAPDDPVSLLFPEEAAHVARAVPKRLHEFATVRVCARAALGRLGLPPGPLLPGRRGAPSWPDGVVGSMTHCQGFRGAAVARAADAASLGIDAEPNGPLPDGVLAMVSLPSEREWLAGLAARRPDVHWDRLLFSAKESVFKAWYPLTGLELDFDEAELAVDPDAGTFTARLLVPGPVVGGRRLDGFEGRWAAGEGLVVTAIAVAAPAGTAEESAEGAGKEATADDRTAVPHHHHHH
- PPTase activity on type I ACP (BlmVIII): able to posttranslationally modified
- PPTase activity on type II ACP (TcmM): able to posttranslationally modified
- PPTase activity on type II PCP (BlmI): robust phosphopantetheinylation activity
- PPTase activity on type I PCP (MBlmX-2): robust phosphopantetheinylation activity
